Tests used:
CDP (CUX1) = CDP (CUX1) (UniProt P39880 P39880:1-1505); assay: EMSA; settings: tags: pCITE-CDP, TNT reticulocyte lysate; label: radiolabel
PDX1 [1] = target: T1, PDX1 (UniProt P52945 P52945:1-283); assay: EMSA; positive control; settings: tags: pCITE-PDX1, TNT reticulocyte lysate; label: radiolabel
PDX1 [2] = target: T1, PDX1; assay: EMSA; settings: tags: pCITE-PDX1, TNT reticulocyte lysate; label: radiolabel
SATB1 = target: T2, SATB1 (UniProt Q01826 Q01826:1-763); assay: EMSA; settings: tags: pCITE-SATB1, TNT reticulocyte lysate; label: radiolabel
T2 sequence: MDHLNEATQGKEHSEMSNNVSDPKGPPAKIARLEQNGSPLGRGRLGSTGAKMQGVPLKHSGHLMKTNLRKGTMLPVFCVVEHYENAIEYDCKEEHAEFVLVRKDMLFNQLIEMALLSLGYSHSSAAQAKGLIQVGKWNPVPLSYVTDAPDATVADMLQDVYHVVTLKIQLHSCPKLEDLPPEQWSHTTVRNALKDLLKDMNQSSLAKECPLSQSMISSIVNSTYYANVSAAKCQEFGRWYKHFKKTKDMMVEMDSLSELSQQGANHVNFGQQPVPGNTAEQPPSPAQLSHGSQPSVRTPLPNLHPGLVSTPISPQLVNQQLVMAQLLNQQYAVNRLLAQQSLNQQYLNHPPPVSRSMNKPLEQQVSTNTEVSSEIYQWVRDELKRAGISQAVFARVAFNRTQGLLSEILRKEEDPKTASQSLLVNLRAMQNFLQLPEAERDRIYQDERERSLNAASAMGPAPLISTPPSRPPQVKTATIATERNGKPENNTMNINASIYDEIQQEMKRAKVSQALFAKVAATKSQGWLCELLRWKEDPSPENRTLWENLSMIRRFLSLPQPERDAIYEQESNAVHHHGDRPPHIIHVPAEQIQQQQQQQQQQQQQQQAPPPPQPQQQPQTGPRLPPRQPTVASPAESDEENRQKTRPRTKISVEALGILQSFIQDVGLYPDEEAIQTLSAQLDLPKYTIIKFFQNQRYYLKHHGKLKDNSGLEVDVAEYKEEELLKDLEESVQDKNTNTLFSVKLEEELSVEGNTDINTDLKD

Chain of CDP (CUX1) (P39880 whole entry, one chain of several): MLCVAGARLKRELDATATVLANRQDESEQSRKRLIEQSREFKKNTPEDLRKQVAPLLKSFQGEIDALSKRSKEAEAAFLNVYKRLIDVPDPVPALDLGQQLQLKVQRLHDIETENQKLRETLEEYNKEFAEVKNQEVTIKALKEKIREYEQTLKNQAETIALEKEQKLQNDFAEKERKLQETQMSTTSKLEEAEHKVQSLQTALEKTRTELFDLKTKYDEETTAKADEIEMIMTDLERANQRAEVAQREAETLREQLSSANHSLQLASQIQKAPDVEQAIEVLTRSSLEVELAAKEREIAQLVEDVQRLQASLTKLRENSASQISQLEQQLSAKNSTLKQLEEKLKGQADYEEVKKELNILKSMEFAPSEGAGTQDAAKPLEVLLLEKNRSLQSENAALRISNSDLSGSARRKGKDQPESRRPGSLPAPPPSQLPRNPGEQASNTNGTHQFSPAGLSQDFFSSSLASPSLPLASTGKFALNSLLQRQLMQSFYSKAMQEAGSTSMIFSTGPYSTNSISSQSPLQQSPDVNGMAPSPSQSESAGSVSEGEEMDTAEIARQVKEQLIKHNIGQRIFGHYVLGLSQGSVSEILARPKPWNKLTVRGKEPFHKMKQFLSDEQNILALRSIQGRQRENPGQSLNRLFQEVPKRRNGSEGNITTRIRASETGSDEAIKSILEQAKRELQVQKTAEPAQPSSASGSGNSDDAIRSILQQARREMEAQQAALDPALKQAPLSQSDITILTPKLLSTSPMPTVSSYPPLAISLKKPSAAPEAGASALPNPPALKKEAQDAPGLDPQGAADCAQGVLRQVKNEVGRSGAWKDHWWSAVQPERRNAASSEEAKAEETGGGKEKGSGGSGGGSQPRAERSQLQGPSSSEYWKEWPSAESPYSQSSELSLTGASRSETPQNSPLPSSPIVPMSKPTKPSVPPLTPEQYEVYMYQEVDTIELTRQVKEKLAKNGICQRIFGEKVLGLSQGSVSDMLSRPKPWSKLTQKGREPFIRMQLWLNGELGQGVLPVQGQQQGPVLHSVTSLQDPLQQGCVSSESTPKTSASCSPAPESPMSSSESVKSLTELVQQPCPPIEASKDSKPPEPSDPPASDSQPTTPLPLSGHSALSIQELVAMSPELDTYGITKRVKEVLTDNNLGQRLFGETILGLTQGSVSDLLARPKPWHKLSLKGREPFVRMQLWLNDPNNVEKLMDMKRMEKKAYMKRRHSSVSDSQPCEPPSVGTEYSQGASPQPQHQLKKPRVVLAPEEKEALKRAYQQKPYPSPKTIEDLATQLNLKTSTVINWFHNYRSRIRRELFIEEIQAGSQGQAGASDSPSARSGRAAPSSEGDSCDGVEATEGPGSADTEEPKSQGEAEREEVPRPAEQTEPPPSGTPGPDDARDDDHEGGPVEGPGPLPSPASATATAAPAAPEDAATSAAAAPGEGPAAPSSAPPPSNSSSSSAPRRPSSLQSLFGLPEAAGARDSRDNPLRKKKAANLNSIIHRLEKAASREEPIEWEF
T1 sequence (P52945 whole entry, one chain of several): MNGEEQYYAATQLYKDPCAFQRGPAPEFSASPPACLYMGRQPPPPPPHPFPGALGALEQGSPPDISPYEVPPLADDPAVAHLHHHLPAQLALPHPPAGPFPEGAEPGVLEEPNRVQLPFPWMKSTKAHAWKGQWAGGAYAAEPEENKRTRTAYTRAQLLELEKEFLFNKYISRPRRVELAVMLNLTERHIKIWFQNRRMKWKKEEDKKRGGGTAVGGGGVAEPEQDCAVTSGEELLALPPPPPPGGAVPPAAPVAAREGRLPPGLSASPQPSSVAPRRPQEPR

B1: CMV-593 to -549 (dsDNA)
DNA 1: GGCATTGATTATTGACTAGTTATTAATAGTAATCAATTACGGGGTCATTAGTTCA
DNA 2: TGAACTAATGACCCCGTAATTGATTACTATTAATAACTAGTCAATAATCAATGCC
B1: binds (CDP (CUX1)); binds (PDX1 [1]).

B2: CMV-687 to -640 (dsDNA)
DNA 1: TAAATCAATATTGGCTATTGGCCATTGCATACGTTGTATCTATATCATAATATGTACA
DNA 2: TGTACATATTATGATATAGATACAACGTATGCAATGGCCAATAGCCAATATTGATTTA
B2: binds (CDP (CUX1)).

B3: CMV-639 to -594 (dsDNA)
DNA 1: TATATGTACATTTATATTGGCTCATGTCCAATATGACCGCCATGTTGGCATTGATT
DNA 2: AATCAATGCCAACATGGCGGTCATATTGGACATGAGCCAATATAAATGTACATATA
B3: no binding (PDX1 [2]); no binding (SATB1); no binding (CDP (CUX1)).

— patent publication US20060035214, “Screening methods for identifying inhibitors of herpesviral replication” (IRM LLC, a Delaware Limited Liability Company, published 2006)
